Reference: PMC5531834

Experiments:
8N-Gag (Δp6) (HIV-1) [1] = assay: FCS Cy5 quenching; settings: 20 mM Tris-HCl pH 7.5, 0.2 M NaCl (varied in salt titrations), 5 mM MgCl2, 1 uM ZnCl2, 0.1 mM PMSF, 1 mM BME, 0.05% Tween 20; 15 nM RNA; overnight 4 C, FCS at …
[2] = test system: WT-Gag (HIV-1 Δp6 Gag) (HIV-1); assay: FCS Cy5 quenching; settings: 20 mM Tris-HCl pH 7.5, 0.2 M NaCl (varied in salt titrations), 5 mM MgCl2, 1 uM ZnCl2, 0.1 mM PMSF, 1 mM BME, 0.05% Tween 20; 15 nM RNA; overnight 4 C, FCS at …
8N-Gag (Δp6) (HIV-1) [3] = assay: FCS Cy5 quenching; settings: 20 mM Tris-HCl pH 7.5, 0.2 M NaCl (varied in salt titrations), 5 mM MgCl2, 1 uM ZnCl2, 0.1 mM PMSF, 1 mM BME, 0.05% Tween 20; 15 nM RNA; overnight 4 C, FCS at …; remark: listed apart in the source
8N-Gag (Δp6) (HIV-1) [4] = assay: FCS Cy5 quenching, competition; settings: 20 mM Tris-HCl pH 7.5, 0.2 M NaCl (varied in salt titrations), 5 mM MgCl2, 1 uM ZnCl2, 0.1 mM PMSF, 1 mM BME, 0.05% Tween 20; 15 nM RNA; overnight 4 C, FCS at …
[5] = test system: WT-Gag (HIV-1 Δp6 Gag) (HIV-1); assay: FCS Cy5 quenching, competition; settings: 20 mM Tris-HCl pH 7.5, 0.2 M NaCl (varied in salt titrations), 5 mM MgCl2, 1 uM ZnCl2, 0.1 mM PMSF, 1 mM BME, 0.05% Tween 20; 15 nM RNA; overnight 4 C, FCS at …
[6] = molecular target: Gag (Human immunodeficiency virus 1) (UniProt O93182); settings: cited from earlier work
[7] = test system: WT-Gag (HIV-1 Δp6 Gag) (HIV-1); assay: FCS Cy5 quenching; settings: 20 mM Tris-HCl pH 7.5, 0.2 M NaCl (varied in salt titrations), 5 mM MgCl2, 1 uM ZnCl2, 0.1 mM PMSF, 1 mM BME, 0.05% Tween 20; 15 nM RNA; overnight 4 C, FCS at …; remark: listed apart in the source

Sequence of Gag (O93182 2-500): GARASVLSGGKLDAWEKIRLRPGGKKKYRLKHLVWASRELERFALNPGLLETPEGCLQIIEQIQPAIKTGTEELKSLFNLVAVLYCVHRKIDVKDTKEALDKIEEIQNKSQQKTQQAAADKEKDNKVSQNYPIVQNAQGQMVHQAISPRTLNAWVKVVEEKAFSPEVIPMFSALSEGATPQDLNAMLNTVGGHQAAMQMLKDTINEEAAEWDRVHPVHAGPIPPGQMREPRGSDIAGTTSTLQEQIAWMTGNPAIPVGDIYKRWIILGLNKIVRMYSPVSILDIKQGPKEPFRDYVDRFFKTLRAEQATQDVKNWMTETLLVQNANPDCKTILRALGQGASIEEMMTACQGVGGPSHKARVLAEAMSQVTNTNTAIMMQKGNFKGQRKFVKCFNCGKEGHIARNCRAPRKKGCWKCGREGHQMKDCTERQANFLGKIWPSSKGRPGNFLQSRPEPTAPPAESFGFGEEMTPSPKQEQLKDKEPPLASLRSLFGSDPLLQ

Row | Substance | Kd (8N-Gag (Δp6) (HIV-1) [1]) | Kd [2] | Kd (8N-Gag (Δp6) (HIV-1) [3]) | Kd (8N-Gag (Δp6) (HIV-1) [4]) | Kd [5] | Kd [6] | Kd [7]
1 | GRPE RNA | 145 nM | 44.2 nM | > 1000 nM | 154 nM | 315 nM |  | 
2 | Gag (from UniProt O93182) |  |  |  |  |  | 10000 nM | 
3 | HIV Ψ1 (monomeric HIV-1 Ψ RNA) | 60 nM | 21.4 nM |  | 60 nM | 53.3 nM |  | 26 nM
4 | HIV Ψ2 (dimeric HIV-1 Ψ RNA) | 43.2 nM | 20.3 nM | > 1000 nM | 54.7 nM | 37 nM |  | 
5 | MoMLV Ψ RNA | 59.8 nM | 25.9 nM |  | 59 nM | 119 nM |  | 
